{"source": "patent US12479895B2", "about": "“C-terminal CDNF and MANF fragments, pharmaceutical compositions comprising same and uses thereof” (MyNeuroCure Oy, priority 2018, dated 2025)", "key": {"[1]": {"conditions": "rat, in vivo, sc", "experimental": "CDNF, C-CDNF and C-MANF were iodinated with ^125I-Na using the lactoperoxidase method. The protein in question was dissolved in 30 μl of 0.25 M phosphate buffer, pH 7.5, and mixed with ^125I-Na (1 mCi/2.8 μl; 1 mCi=37 mBq; GE Healthcare). The reaction was started by adding lactoperoxidase 10 μl of 50 μg/ml and 0.05% H2O2. The mixture was incubated at room temperature for 20 min and the reaction was stopped by adding 3 volumes of 0.1 M phosphate buffer, pH 7.5, containing 0.1 M NaI, 0.42 M NaCl, and then 25 μl of 2.5% BSA was added. Free iodine and iodinated protein were separated by gel filtration on Sephadex G-25 columns (PM10; GE Healthcare). For column equilibrium and elution, 0.1 M phosphate buffer, pH 7.5, with 1% BSA was used. The iodinated growth factors were sometimes concentrated by using YM-10 Centricon columns (Millipore). The specific activity of ^125I-labeled CDNF, C-CDNF and C-MANF was measured on the Wizard 3 1480 Automatic Gamma Counter (Perkin Elmer, Wallac) and was about 10^8 cpm/μg protein. The labelled protein were kept at 4° C. and used within 3 weeks after labelling.\n^125I-CDNF, ^125I C-CDNF or ^125I C-MANF (all proteins at 10^6 cpm in 10 μl) were injected subcutaneously to adult male Wistar rats. […] Radioactivity was analyzed in different brain regions by gamma counter. […] The differences between groups were analyzed ANOVA followed by Tukey-Kramers post hoc test."}, "rat 6-OHDA model of PD": {"system": "rat 6-OHDA model of PD", "test": "Neurorestoration study in 6-OHDA model of PD in rats", "assay_type": "in vivo", "conditions": "injected intrastriatally 2 weeks after 6-OHDA lesioning; rotations at 2, 4, 6 and 8 weeks post-lesion"}, "dopamine neurons": {"system": "dopamine neurons", "test": "Survival of TH-positive dopamine neurons in dissociated midbrain floor cultures", "assay_type": "cell-based, mouse", "conditions": "for survived neurons as % compared to neurons grown in the presence of GDNF: Table 3A (FIG. 15); for survived neurons as % compared to neurons grown in the presence of GDNF / protection of dopaminergic neurons in culture (result in words): 5 days; for Fold change of survived neurons compared to neurons grown without growth factors: data of Table 3 divided by values of no factor; for protection of dopaminergic neurons in culture (result in words): added to the culture medium, TH-positive neurons counted", "summary_of_the_method": "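Dissociated E13.5 NMRI mouse midbrain floor neurons grown five days in DMEM/F12 with N2, with polypeptides at a range of concentrations, GDNF (100 ng/ml), or nothing. TH-immunopositive neurons were counted by imaging. Values are a percentage of GDNF-maintained TH-positive neurons, as mean ± SEM from at least three independent cultures.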"}, "ER stressed SCG neurons": {"system": "ER stressed SCG neurons", "test": "Survival of tunicamycin-treated (ER stressed) SCG sympathetic neurons after microinjection", "assay_type": "cell-based, mice", "conditions": "for survived neurons as % compared to neurons grown in the presence of NGF: Table 1A (FIG. 14), microinjected into cytoplasm, CDNF (400); for Fold change of survived neurons compared to neurons injected with PBS: data of Table 1 divided by values of PBS", "summary_of_the_method": "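Newborn mouse SCG neurons grown 5-6 days with 30 ng/ml NGF, then microinjected with CDNF (FL or C-terminal) plasmids (10 ng/ul, EGFP reporter) or proteins (200 ng/ul, Dextran Texas Red). Tunicamycin (2 μM) added next day. Fluorescent survivors counted blindly after 3 days as % of initial; compared with vector or PBS (ANOVA/Dunnett).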"}}}
{"molecule": "KYEKTLDLASVDLRKMRVAELKQILHSWGEECRACAEKTDYVNLIQELAPKYAATHPKTEL (peptide, listed as Homo sapiens) KYEKTLDLASVDLRKMRVAELKQILHSWGEECRACAEKTDYVNLIQELAPKYAATHPKTEL", "values": [{"measurement": "blood-brain-barrier penetration", "setting": "[1]", "value": "capable of penetrating"}, {"measurement": "cumulative amount of amphetamine-induced rotations", "setting": "rat 6-OHDA model of PD", "value": "significantly reduces"}, {"measurement": "survived neurons as % compared to neurons grown in the presence of GDNF", "setting": "dopamine neurons; AVG, 1 ng/ml", "value": 63.97, "unit": "% GDNF"}, {"measurement": "survived neurons as % compared to neurons grown in the presence of GDNF", "setting": "dopamine neurons; AVG, 10 ng/ml", "value": 80.69, "unit": "% GDNF"}, {"measurement": "survived neurons as % compared to neurons grown in the presence of GDNF", "setting": "dopamine neurons; AVG, 100 ng/ml", "value": 77.02, "unit": "% GDNF"}, {"measurement": "survived neurons as % compared to neurons grown in the presence of GDNF", "setting": "dopamine neurons; AVG, 1000 ng/ml", "value": 70.02, "unit": "% GDNF"}, {"measurement": "survived neurons as % compared to neurons grown in the presence of GDNF", "setting": "dopamine neurons; exp1, 1 ng/ml", "value": 62.96, "unit": "% GDNF"}, {"measurement": "survived neurons as % compared to neurons grown in the presence of GDNF", "setting": "dopamine neurons; exp1, 10 ng/ml", "value": 81.68, "unit": "% GDNF"}, {"measurement": "survived neurons as % compared to neurons grown in the presence of GDNF", "setting": "dopamine neurons; exp1, 100 ng/ml", "value": 91.48, "unit": "% GDNF"}, {"measurement": "survived neurons as % compared to neurons grown in the presence of GDNF", "setting": "dopamine neurons; exp1, 1000 ng/ml", "value": 75.02, "unit": "% GDNF"}, {"measurement": "survived neurons as % compared to neurons grown in the presence of GDNF", "setting": "dopamine neurons; exp2, 1 ng/ml", "value": 67.36, "unit": "% GDNF"}, {"measurement": "survived neurons as % compared to neurons grown in the presence of GDNF", "setting": "dopamine neurons; exp2, 10 ng/ml", "value": 80.97, "unit": "% GDNF"}, {"measurement": "survived neurons as % compared to neurons grown in the presence of GDNF", "setting": "dopamine neurons; exp2, 100 ng/ml", "value": 65.28, "unit": "% GDNF"}, {"measurement": "survived neurons as % compared to neurons grown in the presence of GDNF", "setting": "dopamine neurons; exp2, 1000 ng/ml", "value": 61.07, "unit": "% GDNF"}, {"measurement": "survived neurons as % compared to neurons grown in the presence of GDNF", "setting": "dopamine neurons; exp3, 1 ng/ml", "value": 61.59, "unit": "% GDNF"}, {"measurement": "survived neurons as % compared to neurons grown in the presence of GDNF", "setting": "dopamine neurons; exp3, 10 ng/ml", "value": 79.42, "unit": "% GDNF"}, {"measurement": "survived neurons as % compared to neurons grown in the presence of GDNF", "setting": "dopamine neurons; exp3, 100 ng/ml", "value": 74.30, "unit": "% GDNF"}, {"measurement": "survived neurons as % compared to neurons grown in the presence of GDNF", "setting": "dopamine neurons; exp3, 1000 ng/ml", "value": 73.98, "unit": "% GDNF"}, {"measurement": "Fold change of survived neurons compared to neurons grown without growth factors", "setting": "dopamine neurons; Table 4, AVG, 1 ng/ml", "value": 1.04, "unit": "fold"}, {"measurement": "Fold change of survived neurons compared to neurons grown without growth factors", "setting": "dopamine neurons; Table 4, AVG, 10 ng/ml", "value": 1.31, "unit": "fold"}, {"measurement": "Fold change of survived neurons compared to neurons grown without growth factors", "setting": "dopamine neurons; Table 4, AVG, 100 ng/ml", "value": 1.26, "unit": "fold"}, {"measurement": "Fold change of survived neurons compared to neurons grown without growth factors", "setting": "dopamine neurons; Table 4, AVG, 1000 ng/ml", "value": 1.14, "unit": "fold"}, {"measurement": "Fold change of survived neurons compared to neurons grown without growth factors", "setting": "dopamine neurons; Table 4, exp1, 1 ng/ml", "value": 1.10, "unit": "fold"}, {"measurement": "Fold change of survived neurons compared to neurons grown without growth factors", "setting": "dopamine neurons; Table 4, exp1, 10 ng/ml", "value": 1.43, "unit": "fold"}, {"measurement": "Fold change of survived neurons compared to neurons grown without growth factors", "setting": "dopamine neurons; Table 4, exp1, 100 ng/ml", "value": 1.60, "unit": "fold"}, {"measurement": "Fold change of survived neurons compared to neurons grown without growth factors", "setting": "dopamine neurons; Table 4, exp1, 1000 ng/ml", "value": 1.31, "unit": "fold"}, {"measurement": "Fold change of survived neurons compared to neurons grown without growth factors", "setting": "dopamine neurons; Table 4, exp2, 1 ng/ml", "value": 1.07, "unit": "fold"}, {"measurement": "Fold change of survived neurons compared to neurons grown without growth factors", "setting": "dopamine neurons; Table 4, exp2, 10 ng/ml", "value": 1.28, "unit": "fold"}, {"measurement": "Fold change of survived neurons compared to neurons grown without growth factors", "setting": "dopamine neurons; Table 4, exp2, 100 ng/ml", "value": 1.04, "unit": "fold"}, {"measurement": "Fold change of survived neurons compared to neurons grown without growth factors", "setting": "dopamine neurons; Table 4, exp2, 1000 ng/ml", "value": 0.97, "unit": "fold"}, {"measurement": "Fold change of survived neurons compared to neurons grown without growth factors", "setting": "dopamine neurons; Table 4, exp3, 1 ng/ml", "value": 0.95, "unit": "fold"}, {"measurement": "Fold change of survived neurons compared to neurons grown without growth factors", "setting": "dopamine neurons; Table 4, exp3, 10 ng/ml", "value": 1.23, "unit": "fold"}, {"measurement": "Fold change of survived neurons compared to neurons grown without growth factors", "setting": "dopamine neurons; Table 4, exp3, 100 ng/ml", "value": 1.15, "unit": "fold"}, {"measurement": "Fold change of survived neurons compared to neurons grown without growth factors", "setting": "dopamine neurons; Table 4, exp3, 1000 ng/ml", "value": 1.14, "unit": "fold"}, {"measurement": "protection of dopaminergic neurons in culture (result in words)", "setting": "dopamine neurons", "value": "protects"}, {"measurement": "protection of dopaminergic neurons in culture (result in words)", "setting": "dopamine neurons; listed as C-terminal CDNF fragment", "value": "potently protected"}, {"measurement": "survived neurons as % compared to neurons grown in the presence of NGF", "setting": "ER stressed SCG neurons; AVG of exp1-2, tunicamycin 2 μM", "value": 84.37, "unit": "% NGF"}, {"measurement": "survived neurons as % compared to neurons grown in the presence of NGF", "setting": "ER stressed SCG neurons; exp1, tunicamycin 2 μM, counted after 3 days", "value": 78.87, "unit": "% NGF"}, {"measurement": "survived neurons as % compared to neurons grown in the presence of NGF", "setting": "ER stressed SCG neurons; exp2, tunicamycin 2 μM, counted after 3 days", "value": 89.87, "unit": "% NGF"}, {"measurement": "Fold change of survived neurons compared to neurons injected with PBS", "setting": "ER stressed SCG neurons; Table 2, AVG", "value": "2.28 Fold to PBS"}, {"measurement": "Fold change of survived neurons compared to neurons injected with PBS", "setting": "ER stressed SCG neurons; Table 2, exp1", "value": "2.30 Fold to PBS"}, {"measurement": "Fold change of survived neurons compared to neurons injected with PBS", "setting": "ER stressed SCG neurons; Table 2, exp2", "value": "2.26 Fold to PBS"}, {"measurement": "rescue of ER stressed SCG sympathetic neurons (result in words)", "setting": "ER stressed SCG neurons; expressed from microinjected plasmids, tunicamycin 2 μM, living fluorescent neurons counted after three days", "value": "rescue"}, {"measurement": "rescue of ER stressed SCG neurons (result in words)", "setting": "ER stressed SCG neurons; protein or peptide microinjected into the cytoplasm, tunicamycin 2 μM, living fluorescent neurons counted after 3 days", "value": "rescue"}]}
